Source: patent US20060263828A1

Target: Flag-β2AR (UniProt P07550)
Assay: cell-based or functional assay

## β-arrestin2 (from UniProt P29067 1-410)
  β2AR degradation after 24 hrs of isoproterenol treatment (125I CYP binding on whole HEK 293 cells; mock about 25%): 6 to 7%
